Paper PMC12846365 (2026)

Legend:
[1] = biological target: 48d.cl IC as analyte in SPR (Fab-Fab-crosslinked [change]) (HIV-1 strain BG505, UniProt Q2N0S6); assay: SPR
[2] = biological target: 48d IC as analyte in SPR (non-crosslinked control) (HIV-1 strain BG505, UniProt Q2N0S6); assay: SPR

B1: 2mutVRC01 (antibody, V domains shown)
VH: QVQLVQSGGQMKKPGESMRISCRASGYEFIDCTLNWIRLAPGKRPEWMGWLKPRGGAVNYARPLQGRVTMTRDVYSDTAFLELRSLTVDDTAVYFCTRGKNCDYNWDFEHWGRGTPVIVSS
VL: EIVLTQSPGTLSLSPGETAIISCRTSQYGSAALAWYQQRPGQAPRLVIYSGSTRAAGIPDRFSGSRWGPDYNLTISNLESGDFGVYYCQQYEFFGQGTKVQVD
Kd [1]: 0.52 nM | koff [1]: 0.00012 s⁻¹ | Kd [2]: 0.81 nM | koff [2]: 0.00031 s⁻¹
